According to patent US20050249730A1 (PIERRE FABRE MEDICAMENT, published 2005):

Target: T1, insulin receptor isoform A (IR-A) from lysates of R-/IR-A cells (UniProt P06213-2 28-1370)
T1 construct: Whole receptor in the lysate of R- fibroblasts stably transfected with IR-A cDNA
Assay: immunoprecipitation from R-/IR-A cell lysate, SDS-PAGE, immunoblot with anti-IR beta-subunit

T1 sequence (P06213 other isoform, or with tags, fused parts or gaps limits assumed): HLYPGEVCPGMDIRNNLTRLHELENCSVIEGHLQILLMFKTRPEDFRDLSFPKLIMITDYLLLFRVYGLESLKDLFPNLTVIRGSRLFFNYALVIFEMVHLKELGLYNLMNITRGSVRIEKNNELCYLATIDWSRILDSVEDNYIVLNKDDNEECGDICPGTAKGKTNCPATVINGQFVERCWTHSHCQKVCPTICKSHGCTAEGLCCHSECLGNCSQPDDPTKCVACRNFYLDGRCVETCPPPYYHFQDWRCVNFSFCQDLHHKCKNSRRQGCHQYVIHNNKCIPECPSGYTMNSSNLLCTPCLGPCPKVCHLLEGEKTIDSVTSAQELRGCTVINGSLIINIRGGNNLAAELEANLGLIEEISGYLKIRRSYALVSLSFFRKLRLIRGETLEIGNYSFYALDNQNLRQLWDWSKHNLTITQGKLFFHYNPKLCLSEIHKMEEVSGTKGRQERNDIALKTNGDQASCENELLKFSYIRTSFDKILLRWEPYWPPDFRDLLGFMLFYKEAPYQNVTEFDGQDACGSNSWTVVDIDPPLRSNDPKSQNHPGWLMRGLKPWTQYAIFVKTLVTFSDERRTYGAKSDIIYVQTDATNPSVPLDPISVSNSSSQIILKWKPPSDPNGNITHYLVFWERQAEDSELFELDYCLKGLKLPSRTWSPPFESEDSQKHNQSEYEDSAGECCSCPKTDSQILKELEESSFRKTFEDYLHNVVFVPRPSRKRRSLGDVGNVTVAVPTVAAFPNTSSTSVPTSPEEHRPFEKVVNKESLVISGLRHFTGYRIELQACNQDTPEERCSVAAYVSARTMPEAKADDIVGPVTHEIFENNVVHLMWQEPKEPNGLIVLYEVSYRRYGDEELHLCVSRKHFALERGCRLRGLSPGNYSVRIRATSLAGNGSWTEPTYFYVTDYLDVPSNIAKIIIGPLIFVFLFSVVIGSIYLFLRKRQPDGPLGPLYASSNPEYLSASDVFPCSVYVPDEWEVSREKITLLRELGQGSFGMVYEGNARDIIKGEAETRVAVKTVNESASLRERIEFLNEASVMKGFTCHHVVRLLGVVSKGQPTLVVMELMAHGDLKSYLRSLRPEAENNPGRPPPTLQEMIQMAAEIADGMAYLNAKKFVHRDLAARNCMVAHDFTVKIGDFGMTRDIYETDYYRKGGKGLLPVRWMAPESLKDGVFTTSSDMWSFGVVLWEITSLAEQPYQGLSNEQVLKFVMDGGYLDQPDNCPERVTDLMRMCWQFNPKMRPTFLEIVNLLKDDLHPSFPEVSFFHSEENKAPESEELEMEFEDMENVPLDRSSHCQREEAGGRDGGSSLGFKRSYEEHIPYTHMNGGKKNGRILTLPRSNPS

binding result: no binding
B1: humanized antibody h7C10 (humanized form 1 of 7C10: humanized 7C10 VH 1 with humanized 7C10 VL 1) (antibody, V domains shown)
VH: QVQLQESGPGLVKPSETLSLTCTVSGYSITGGYLWNWIRQPPGKGLEWMGYISYDGTNNYKPSLKDRITISRDTSKNQFSLKLSSVTAADTAVYYCARYGRVFFDYWGQGTLVTVSS
VL: DVVMTQSPLSLPVTPGEPASISCRSSQSIVHSNGNTYLQWYLQKPGQSPQLLIYKVSNRLYGVPDRFSGSGSGTDFTLKISRVEAEDVGVYYCFQGSHVPWTFGQGTKVEIK
notes: Human IgG1/kappa; also called 7H2HM; A2CHM
